# From IntAct's records for PubMed 24449766
# B1: E3 ubiquitin-protein ligase MARCHF6 (Homo sapiens), O60337 (parent)
# chain: MDTAEEDICRVCRSEGTPEKPLYHPCVCTGSIKFIHQECLVQWLKHSRKEYCELCKHRFAFTPIYSPDMPSRLPIQDIFAGLVTSIGTAIRYWFHYTLVAFAWLGVVPLTACRIYKCLFTGSVSSLLTLPLDMLSTENLLADCLQGCFVVTCTLCAFISLVWLREQIVHGGAPIWLEHAAPPFNAAGHHQNEAPAGGNGAENVAADQPANPPAENAVVGENPDAQDDQAEEEEEDNEEEDDAGVEDAADANNGAQDDMNWNALEWDRAAEELTWERMLGLDGSLVFLEHVFWVVSLNTLFILVFAFCPYHIGHFSLVGLGFEEHVQASHFEGLITTIVGYILLAITLIICHGLATLVKFHRSRRLLGVCYIVVKVSLLVVVEIGVFPLICGWWLDICSLEMFDATLKDRELSFQSAPGTTMFLHWLVGMVYVFYFASFILLLREVLRPGVLWFLRNLNDPDFNPVQEMIHLPIYRHLRRFILSVIVFGSIVLLMLWLPIRIIKSVLPNFLPYNVMLYSDAPVSELSLELLLLQVVLPALLEQGHTRQWLKGLVRAWTVTAGYLLDLHSYLLGDQEENENSANQQVNNNQHARNNNAIPVVGEGLHAAHQAILQQGGPVGFQPYRRPLNFPLRIFLLIVFMCITLLIASLICLTLPVFAGRWLMSFWTGTAKIHELYTAACGLYVCWLTIRAVTVMVAWMPQGRRVIFQKVKEWSLMIMKTLIVAVLLAGVVPLLLGLLFELVIVAPLRVPLDQTPLFYPWQDWALGVLHAKIIAAITLMGPQWWLKTVIEQVYANGIRNIDLHYIVRKLAAPVISVLLLSLCVPYVIASGVVPLLGVTAEMQNLVHRRIYPFLLMVVVLMAILSFQVRQFKRLYEHIKNDKYLVGQRLVNYERKSGKQGSSPPPPQSSQE
# Variants of: B1
# Conditions: with erg1_human SQLE
row,effect of a mutation on the interaction,Variant
1,increasing interaction,C9A
